Data as given in paper PMC3929599.

How the values were obtained:
[1] = target: mEGFP-labelled WASp (reciprocal tagging) (Drosophila); test: FRET or BRET; FLIM-FRET, pixel-resolution 'Interaction' in the CNS of live Drosophila embryos at hours 15 and 21, and Polarplot estimate of the percentage of donor molecules undergoing FRET (hour not told for the percentages)
[2] = target: mCherry::WASp (Wiskott-Aldrich Syndrome protein labelled with mCherry at its amino terminus) (Drosophila); test: as above
mCherry::WASp (Wiskott-Aldrich Syndrome protein labelled with mCherry at its amino terminus) (Drosophila), sequence (main, as listed by the source): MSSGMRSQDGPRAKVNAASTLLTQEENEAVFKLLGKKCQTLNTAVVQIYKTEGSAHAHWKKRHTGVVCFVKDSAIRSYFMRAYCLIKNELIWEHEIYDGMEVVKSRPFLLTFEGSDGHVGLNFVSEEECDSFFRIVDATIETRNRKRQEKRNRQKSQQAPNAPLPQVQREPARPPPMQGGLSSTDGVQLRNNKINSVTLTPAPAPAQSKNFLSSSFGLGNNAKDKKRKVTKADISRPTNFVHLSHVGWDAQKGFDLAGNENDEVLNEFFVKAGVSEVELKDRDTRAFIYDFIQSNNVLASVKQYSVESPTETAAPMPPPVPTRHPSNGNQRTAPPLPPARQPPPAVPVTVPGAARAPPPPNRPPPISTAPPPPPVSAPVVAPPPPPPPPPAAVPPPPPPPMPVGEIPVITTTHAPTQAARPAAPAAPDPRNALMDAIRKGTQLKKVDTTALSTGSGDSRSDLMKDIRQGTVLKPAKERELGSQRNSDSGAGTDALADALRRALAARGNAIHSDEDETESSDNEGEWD

[3] = target: WASp labelled with mCherry at its carboxyl terminus (Drosophila); test: FRET or BRET; FLIM-FRET (3D frequency-domain FLIM): mean mEGFP donor fluorescence lifetime in a CNS segment of live whole Drosophila embryos at hour 15; both proteins expressed in all neurons under elav-GAL4; baseline lifetime without FRET 2.56 ns; 10-20 embryos for each experiment
WASp labelled with mCherry at its carboxyl terminus (Drosophila), sequence (main, as listed by the source): as above

[4] = target: mCherry::WASp (Wiskott-Aldrich Syndrome protein labelled with mCherry at its amino terminus) (Drosophila); test: as above

mEGFP-labelled WASp (reciprocal tagging) (Drosophila), sequence (main, as listed by the source): as above

Row | fraction of WASp interacting with Cdc42 [1] [%] | fraction of Cdc42 interacting with WASp [2] [%] | mean donor (mEGFP) fluorescence lifetime [3] [ns] | mean donor (mEGFP) fluorescence lifetime [4] [ns] | Substance
1 | 30 |  |  |  | mCherry-labelled Cdc42 (reciprocal tagging) (from UniProt P40793 1-191) (natural protein)
2 |  | 10 | 2.44 | 2.45 | mEGFP::Cdc42 (cell division control protein 42 homolog labelled with mEGFP) (from UniProt P40793 1-191) (natural protein)
